Test [1] addresses T1, recombinant active human HPSE1 (Homo sapiens, UniProt Q9Y251).
T1 construct: recombinant active human HPSE1; purchased Bio-techne 7570-GH-005
T1 sequence (Q9Y251 158-543 limits assumed): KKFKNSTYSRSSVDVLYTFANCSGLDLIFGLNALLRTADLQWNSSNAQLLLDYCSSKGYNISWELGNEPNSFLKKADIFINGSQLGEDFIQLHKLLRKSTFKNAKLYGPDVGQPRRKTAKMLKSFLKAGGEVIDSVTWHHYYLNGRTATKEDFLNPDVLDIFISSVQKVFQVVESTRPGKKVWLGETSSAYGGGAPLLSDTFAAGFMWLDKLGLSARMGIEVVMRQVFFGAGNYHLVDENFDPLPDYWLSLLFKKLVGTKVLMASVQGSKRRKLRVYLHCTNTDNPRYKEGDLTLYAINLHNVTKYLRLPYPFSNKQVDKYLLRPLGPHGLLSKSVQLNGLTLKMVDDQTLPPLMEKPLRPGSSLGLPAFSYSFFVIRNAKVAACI
T1 sequence (Q9Y251 36-109 limits assumed): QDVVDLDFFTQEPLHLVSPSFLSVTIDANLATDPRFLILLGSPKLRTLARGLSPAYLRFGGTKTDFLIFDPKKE
Nature of the test: HPSE1 activity assay (inhibition of HPSE1 activity; commercial kit and in-house HS-coated plate assay). It counts as biochemical. To be noted: for inhibition of HPSE1 activity, first screening experiment of all 30 HPSE2 peptides: data not shown, recombinant HPSE1. As to the method: The inhibition of HPSE1 activity by HPSE2 protein and peptides was determined by the commercially available HPSE1 assay kit and an in-house developed HPSE1 activity assay, which was optimized by the use of recombinant active human HPSE1 (Bio-techne, Abingdon, United Kingdom, Cat#7570-GH-005). The in-house developed activity assay was performed as described previously ([Buijsers et al., 2020]). In short, Nunc maxisorp flat bottom 96 plates (Thermo scientific, Breda, Netherlands) were coated with 10 μg/mL heparan sulfate from bovine kidney (HSBK) (Sigma-Aldrich, Zwijndrecht, Netherlands) in optimized HS coating buffer, overnight in a humidified chamber at RT. Subsequently, plates were blocked for minimal 2 h with 1% bacto-gelatin (Difco laboratories, Detroit, Michigan, United States) in PBS at RT whereupon HPSE1 inhibitors were added to the plate with a standard amount of recombinant HPSE1 in HPSE1 buffer. Remaining HSBK was detected with primary mouse […] IgM HS antibody JM403 (Amsbio, Abingdon, United Kingdom, cat. No. #370730-S, RRID: AB_10890960, 1 μg/mL in PBST) for 1 h at RT. Subsequently, plates were incubated with secondary goat anti-mouse IgM HRP antibody (Southern Biotech, Uden, Netherlands, cat. No. #1020–05, RRID: AB_2794201, dilution 1:10,000 in PBST) for 1 h at RT. Finally, 3,3′,5,5′-tetramethylbenzidine (TMB) substrate (Invitrogen, Breda, Netherlands) was added and reaction was stopped by addition of 2 M sulfuric acid, and absorbance was measured at 450 nm.

Test [2] relates to HPSE1. The conditions noted are these: ref Simeonovic et al., 2013; cited from earlier work. The source says:
Other HPSE1 inhibitors have been tested both in vitro and in vivo for their application in glomerular diseases as well. Administration of HPSE1 substrates, such as soluble HS, heparin, and low-molecular-weight heparins, all comprise the potential to reduce albuminuria. One example of such class of drugs is sulodexide, which is a highly purified mixture that consists for 80% of low-molecular-weight heparin and for 20% of dermatan sulfate ([Poplawska et al., 1997]).

Test [3] concerns LPS-induced glomerulonephritis in wt C57Bl/6J mice. Nature of the test: LPS-induced glomerulonephritis mouse model. It counts as in vivo. To be noted: for cortical IL-6 mRNA expression: Figure 5F, IL-6 not detectable in control mice. As to the method:
Experimental LPS-induced glomerulonephritis was induced in eight-to twelve-week-old wt C57Bl/6J mice by an i. p. injection with 80 µg LPS (O111:B4; Sigma-Aldrich Chemie, Zwijndrecht, Netherlands) as described previously ([Garsen et al., 2016a]). The mice were treated with heparanase 2 (HPSE2) protein and an equal mix of HPSE2 peptides (Thermo Fisher Scientific, Breda, Netherlands) 381–410, 391–420, and 401–430, amino acids respectively, via repeated i. v injection with 12 h intervals starting 6 h after LPS injection. Mice were sacrificed 48 h after LPS injection.
(§1) Kidneys were collected and snap frozen in liquid nitrogen and urine was collected after 18 h housing in metabolic cages upon termination. Urinary albumin was measured by radial immunodiffusion (Mancini) as described previously ([Garsen et al., 2016a]). Blood urea nitrogen (BUN) and urinary/plasma creatinine concentrations were determined routinely in our clinical diagnostic facility.
(§2) RNA was isolated from the kidney cortex using RNeasy mini kit (Qiagen) and 1 µg of RNA was reverse transcribed into cDNA using the Transcription First Strand cDNA synthesis kit (Roche, Woerden, Netherlands) according to manufacturer’s instructions. Quantitative PCR was performed with SYBR Green (Roche, Woerden, Netherlands) on a CFX 96 C1000 Thermal Cycler (Bio-rad, Lunteren, Netherlands) to determine expression levels. Data was analysed using glyceraldehyde-3-phosphate dehydrogenase (GAPDH) as housekeeping gene and by making use of the delta-delta CT method.

The test system of test [4] is STZ-induced diabetic nephropathy in wt DBA/2J mice. The test can be described thus: Streptozotocin (STZ)-induced type 1 diabetic nephropathy mouse model. It counts as in vivo. As to the method: Experimental streptozotocin (STZ)-induced type 1 diabetes was induced in six-to eight-week-old wt DBA/2J mice (Charles River, Germany). Mice were first fasted for 4 h whereafter the mice were injected i. p. with 50 mg/kg STZ (Sigma-Aldrich Chemie, Zwijndrecht, Netherlands) in 250 mM sodium citrate buffer (pH 4.5), whereas controls were injected with sodium citrate buffer alone for 5 consecutive days. Blood glucose levels were measured twice a week using the ACCU-CHEK Aviva Blood Glucose Meter (Roche Diagnostics, Almere, Netherlands) to monitor that blood glucose levels would not raise above 25 mmol/L. Mice were implanted under the skin half an insulin pellet (LinShin Canada, Toronto, Canada) when their blood glucose level did raise above 25 mmol/L. The mice were treated with HPSE2 protein via continuous s. c infusion with an osmotic mini pump 8 weeks after the final injection with STZ for a duration of 4 weeks. Mice were sacrificed 12 weeks after induction of diabetes.
as §1, §2

Test [5] concerns mice induced with LPS. To be noted: LPS co-injected with protein compared to LPS alone, upon 2 h; ref Kiyan et al., 2019; cited from earlier work. Here is the method: Since HPSE1 is also involved in inflammation ([Goodall et al., 2014]; [Lever et al., 2014]), the increased HPSE1 and TNF-α expression might be prevented if HPSE2 is administered concomitant with LPS at induction of experimental glomerulonephritis. This effect has been shown previously by Kiyan et al. in the CLP sepsis mouse model. They reported decreased plasma levels of IL-6 and TNF-α in mice induced with LPS co-injected with full-length HPSE2 protein compared to LPS alone already upon 2 h. Unfortunately, no assessment of cytokine or HPSE1 mRNA expression in the renal cortex or other tissues ...

Entries after “also recorded” stand apart in the source; their conditions may differ.

As for “FLWLNTLGMLANQGIDVVIRHSFFDHGYNH [HPSE2 peptide 401–430, HPSE2-derived peptide, AA region 401–430]”, the “inhibition of HPSE1 activity, first screening experiment of all 30 HPSE2 peptides” value in test [1] is “showed great promise as inhibitor of HPSE1 activity”; in test [1] (listed as 401–430), “most effective”.

“GVVTTSAGGTNNLSDSYAAGFLWLNTLGML [HPSE2 peptide 381–410, HPSE2-derived peptide, AA region 381–410]”: the “inhibition of HPSE1 activity, first screening experiment of all 30 HPSE2 peptides” value in test [1] is recorded as “showed great promise as inhibitor of HPSE1 activity; also recorded: most effective”.

Take PI-88: the “HPSE1 inhibition in animal models for glomerular diseases, such as DN” value in test [2] was “effective HPSE1 inhibitor”.

B1: HPSE2 protein: His-tagged mouse heparanase-2 protein produced by in vitro translation in HeLa lysate; b60 values from Kiyan et al. concern their protein (protein, UniProt B2RY83 1-592, looked up)
chain: MRVLCAFPEAMASSSSRPPSCLALVALFLALLLHLSLSFHAGNRRPLPVDRATGLKEKTLILLDVSTKNPVRTVNENFLSLQLDPSIIHDGWLDFLSSKRLVTLARGLSPAFLRFGGKRTDFLQFQNLRNPAKSRGGPGPDYYLKNYEDDIVRSDVALDKQKGCKIAQHPDVMLELQREKASQMHLVLLKEQYSNTYSNLILTARSLDKLYNFADCSGLHLIFALNALRRNPNNSWNSSSALSLLKYSASKKYNISWELGNEPNNYRSIHGRAVNGSQLGKDYIQLKSLLQPIRVYSRASLYGPNIGRPRKNVIALLDGFMKVAGSTVDAVTWQHCYIDGRVVKVMDFLKTRLLDTLSDQIRKIQKVVNTYTPGKKIWLEGVVTTSAGGTNNLSDSYAAGFLWLNTLGMLANQGIDVVIRHSFFDHGYNHLVDQNFNPLPDYWLSLLYKRLIGPKVLAVHVAGLQRKPRPGRVIRDKLRIYAHCTNHHNHNYVRGSITLFIINLHRSRKKIKLAGTLRDKLVHQYLLQPYGQEGLKSKSVQLNGQPLVMVDDGTLPELKPRPLRAGRTLVIPPVTMGFYVVKNVNALACRYR
modifications: full-length His tag
notes: His-tagged mouse heparanase-2 protein produced by in vitro translation in HeLa lysate; b60 values from Kiyan et al. concern their protein
For B1, the plasma creatinine levels entry in test [3] (80 µg LPS i.p., repeated i.v. injection at 12 h intervals starting 6 h after LPS, 48 h, n ≥ 4, Figure 5B) is listed as “significantly ameliorated”. Further, the “urinary albumin creatinine ratio” value in test [3] (80 µg LPS i.p., repeated i.v. injection at 12 h intervals starting 6 h after LPS, 48 h, n ≥ 4, Figure 5C) was “significantly ameliorated; also recorded: dose response inhibitory effect”; in test [4] (STZ 50 mg/kg i.p. 5 days, continuous s.c. infusion by osmotic mini pump from 8 weeks after STZ for 4 weeks, sacrificed at 12 weeks, n ≥ 5, Figure 6C), “significantly ameliorated”. For the same molecule, the “blood urea nitrogen (BUN)” value in test [3] (80 µg LPS i.p., repeated i.v. injection at 12 h intervals starting 6 h after LPS, sacrificed 48 h after LPS, mean ± SEM, n ≥ 4, Figure 5A) was “significantly ameliorated; also recorded: dose response inhibitory effect”. Also, the “cortical HPSE1 mRNA expression” value in test [3] (LPS model, 2 days, qPCR, GAPDH housekeeping, Figure 5D) is “unaltered”; in test [4] (STZ model, 12 weeks, qPCR, Figure 6D), “unaltered”. Moreover, the “cortical TNF-α mRNA expression” value is “unaltered” in test [3] (LPS model, 2 days, qPCR, Figure 5E) and “unaltered” in test [4] (STZ model, 12 weeks, qPCR, Figure 6E). Further, the “cortical IL-6 mRNA expression” value is reported as “decrease” in test [3] (LPS model, 2 days, qPCR); “near-significantly decreased” in test [3] (LPS model, 2 days, qPCR, listed as HPSE2); “did not show a significant difference” in test [4] (STZ model, 12 weeks, qPCR, with versus without treatment, Figure 6F). The “plasma levels of IL-6” value in test [5] was “decreased”. In test [5], the “plasma levels of TNF-α” value was “decreased”. Also, the “dose response inhibition of recombinant human HPSE1” value in test [1] (Figure 4, HS from bovine kidney coated plates, remaining HS detected with JM403, absorbance 450 nm) is given as “dose-dependent inhibition of HPSE1 activity”.

The values are drawn from article PMC10172501, “Heparanase-2 protein and peptides have a protective effect on experimental glomerulonephritis and diabetic nephropathy” (Frontiers in Pharmacology, 2023).
